B1: GpH7-A5/GpH7-B3 variant P271_02A/GpL16-k0 (He Ab) (antibody, human IgG1, kappa)
heavy 1: not shown
heavy 2: not shown
light: DIVMTQSPLSLPVTPGEPASISCQASESLVHSNRNTYLHWYLQKPGQSPQLLIYKVSNRFSGVPDRFSGSGSGTDFTLKISRVEAEDVGVYYCSQNTHVPPTFGQGTKVEIERTVAAPSVFIFPPSDEQLKSGTASVVCLLNNFYPREAKVQWKVDNALQSGNSQESVTEQDSKDSTYSLSSTLTLSKADYEKHKVYACEVTHQGLSSPVTKSFNRGEC
notes: He Ab: alteration only in the GpH7-B3 chain
B2: GpH7-A5/GpH7-B3 variant A330_08L/GpL16-k0 (He Ab) (antibody, human IgG1, kappa)
heavy 1: not shown
heavy 2: not shown
light: B1 light
notes: as for B1
B3: GpH7-A5/GpH7-B3 variant A327_09D/GpL16-k0 (He Ab) (antibody, human IgG1, kappa)
heavy 1: not shown
heavy 2: not shown
light: B1 light
notes: as for B1
B4: GpH7-B3 variant E269_08L/GpL16-k0 (Ho Ab) (antibody, human IgG1, kappa)
heavy: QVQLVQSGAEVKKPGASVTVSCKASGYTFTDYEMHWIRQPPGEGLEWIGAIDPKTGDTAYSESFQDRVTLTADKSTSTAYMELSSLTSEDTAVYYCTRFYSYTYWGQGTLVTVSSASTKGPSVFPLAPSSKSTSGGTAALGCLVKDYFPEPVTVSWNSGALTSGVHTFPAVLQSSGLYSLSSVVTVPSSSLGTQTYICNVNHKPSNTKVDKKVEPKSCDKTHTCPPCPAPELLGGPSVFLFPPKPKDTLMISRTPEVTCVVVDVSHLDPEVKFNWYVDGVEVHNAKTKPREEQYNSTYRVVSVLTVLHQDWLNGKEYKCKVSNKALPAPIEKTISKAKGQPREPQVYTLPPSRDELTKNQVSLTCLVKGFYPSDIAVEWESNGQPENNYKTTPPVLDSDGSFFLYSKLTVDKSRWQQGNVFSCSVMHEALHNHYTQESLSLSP
light: B1 light
notes: Ho Ab: alteration in both H chains
B5: GpH7-B3 variant Q295_03V/GpL16-k0 (Ho Ab) (antibody, human IgG1, kappa)
heavy: not shown
light: B1 light
notes: as for B4
B6: GpH7-B3 variant S267_03V/GpL16-k0 (Ho Ab) (antibody, human IgG1, kappa)
heavy: not shown
light: B1 light
notes: as for B4
B7: GpH7-B3 variant S267_01G/GpL16-k0 (Ho Ab) (antibody, human IgG1, kappa)
heavy: not shown
light: B1 light
notes: as for B4
B8: GpH7-B3 variant I336_10E/GpL16-k0 (Ho Ab) (antibody, human IgG1, kappa)
heavy: not shown
light: B1 light
notes: as for B4
B9: GpH7-B3 variant K326_15Y/GpL16-k0 (Ho Ab) (antibody, human IgG1, kappa)
heavy: not shown
light: B1 light
notes: as for B4
B10: GpH7-B3 variant E333_01G/GpL16-k0 (Ho Ab) (antibody, human IgG1, kappa)
heavy: not shown
light: B1 light
notes: as for B4
B11: GpH7-B3 variant P271_20W/GpL16-k0 (Ho Ab) (antibody, human IgG1, kappa)
heavy: not shown
light: B1 light
notes: as for B4
B12: GpH7-B3 variant P271_07I/GpL16-k0 (Ho Ab) (antibody, human IgG1, kappa)
heavy: not shown
light: B1 light
notes: as for B4
B13: GpH7-B3 variant S337_01G/GpL16-k0 (Ho Ab) (antibody, human IgG1, kappa)
heavy: not shown
light: B1 light
notes: as for B4
B14: GpH7-B3 variant S298_07I/GpL16-k0 (Ho Ab) (antibody, human IgG1, kappa)
heavy: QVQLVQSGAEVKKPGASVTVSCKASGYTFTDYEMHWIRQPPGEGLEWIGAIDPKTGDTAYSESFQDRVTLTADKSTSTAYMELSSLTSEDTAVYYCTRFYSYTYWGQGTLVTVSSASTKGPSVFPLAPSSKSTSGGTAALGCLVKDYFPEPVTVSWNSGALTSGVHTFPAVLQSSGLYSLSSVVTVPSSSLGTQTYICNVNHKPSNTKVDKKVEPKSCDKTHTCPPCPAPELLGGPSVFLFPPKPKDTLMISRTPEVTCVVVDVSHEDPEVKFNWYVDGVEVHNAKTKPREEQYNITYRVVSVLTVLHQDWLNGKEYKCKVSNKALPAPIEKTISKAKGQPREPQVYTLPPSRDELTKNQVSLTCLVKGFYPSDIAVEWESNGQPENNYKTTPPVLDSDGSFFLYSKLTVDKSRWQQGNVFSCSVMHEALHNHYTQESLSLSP
light: B1 light
notes: as for B4
B15: GpH7-B3 variant S324_20W/GpL16-k0 (Ho Ab) (antibody, human IgG1, kappa)
heavy: not shown
light: B1 light
notes: as for B4
B16: GpH7-B3 variant Q295_07I/GpL16-k0 (Ho Ab) (antibody, human IgG1, kappa)
heavy: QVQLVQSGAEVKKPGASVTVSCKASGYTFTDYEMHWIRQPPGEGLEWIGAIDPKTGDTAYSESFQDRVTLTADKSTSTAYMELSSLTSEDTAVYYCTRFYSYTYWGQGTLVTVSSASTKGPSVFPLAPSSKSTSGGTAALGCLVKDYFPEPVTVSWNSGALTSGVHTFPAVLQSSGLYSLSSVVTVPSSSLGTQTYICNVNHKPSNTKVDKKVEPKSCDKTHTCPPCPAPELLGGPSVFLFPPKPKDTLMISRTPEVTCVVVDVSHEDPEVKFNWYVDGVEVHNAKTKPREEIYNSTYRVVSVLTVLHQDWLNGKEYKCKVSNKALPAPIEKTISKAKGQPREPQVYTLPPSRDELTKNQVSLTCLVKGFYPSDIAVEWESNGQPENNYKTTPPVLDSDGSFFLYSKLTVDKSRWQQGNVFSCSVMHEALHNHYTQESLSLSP
light: B1 light
notes: as for B4
B17: GpH7-B3 variant Q295_05P/GpL16-k0 (Ho Ab) (antibody, human IgG1, kappa)
heavy: not shown
light: B1 light
notes: as for B4
B18: GpH7-B3 variant S337_02A/GpL16-k0 (Ho Ab) (antibody, human IgG1, kappa)
heavy: not shown
light: B1 light
notes: as for B4
B19: GpH7-B3 variant P271_12R/GpL16-k0 (Ho Ab) (antibody, human IgG1, kappa)
heavy: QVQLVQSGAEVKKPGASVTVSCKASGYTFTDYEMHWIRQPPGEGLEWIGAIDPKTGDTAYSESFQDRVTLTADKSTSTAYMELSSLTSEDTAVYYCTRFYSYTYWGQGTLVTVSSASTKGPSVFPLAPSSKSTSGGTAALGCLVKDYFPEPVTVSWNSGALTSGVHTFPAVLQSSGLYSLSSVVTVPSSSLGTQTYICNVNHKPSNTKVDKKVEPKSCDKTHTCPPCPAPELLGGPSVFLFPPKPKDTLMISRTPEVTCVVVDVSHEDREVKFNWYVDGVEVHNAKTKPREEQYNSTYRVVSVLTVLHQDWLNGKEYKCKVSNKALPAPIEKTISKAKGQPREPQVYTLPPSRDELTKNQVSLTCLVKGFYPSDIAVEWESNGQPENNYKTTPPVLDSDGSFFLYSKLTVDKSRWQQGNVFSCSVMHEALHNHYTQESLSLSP
light: B1 light
notes: as for B4
B20: GpH7-B3 variant S298_16H/GpL16-k0 (Ho Ab) (antibody, human IgG1, kappa)
heavy: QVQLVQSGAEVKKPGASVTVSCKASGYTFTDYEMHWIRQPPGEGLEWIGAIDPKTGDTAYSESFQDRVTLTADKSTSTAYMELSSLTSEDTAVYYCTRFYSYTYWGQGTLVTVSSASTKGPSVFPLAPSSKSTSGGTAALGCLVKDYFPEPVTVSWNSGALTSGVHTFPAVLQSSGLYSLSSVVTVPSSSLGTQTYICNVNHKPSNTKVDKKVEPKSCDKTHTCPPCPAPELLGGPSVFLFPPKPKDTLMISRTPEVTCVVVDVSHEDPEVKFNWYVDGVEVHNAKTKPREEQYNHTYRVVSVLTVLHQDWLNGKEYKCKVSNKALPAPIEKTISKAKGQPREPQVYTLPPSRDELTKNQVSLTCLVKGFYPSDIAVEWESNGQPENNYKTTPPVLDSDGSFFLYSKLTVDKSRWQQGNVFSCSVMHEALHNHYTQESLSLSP
light: B1 light
notes: as for B4
B21: GpH7-B3 variant I336_01G/GpL16-k0 (Ho Ab) (antibody, human IgG1, kappa)
heavy: not shown
light: B1 light
notes: as for B4
B22: GpH7-B3 variant P271_03V/GpL16-k0 (Ho Ab) (antibody, human IgG1, kappa)
heavy: not shown
light: B1 light
notes: as for B4
B23: GpH7-B3 variant P271_06M/GpL16-k0 (Ho Ab) (antibody, human IgG1, kappa)
heavy: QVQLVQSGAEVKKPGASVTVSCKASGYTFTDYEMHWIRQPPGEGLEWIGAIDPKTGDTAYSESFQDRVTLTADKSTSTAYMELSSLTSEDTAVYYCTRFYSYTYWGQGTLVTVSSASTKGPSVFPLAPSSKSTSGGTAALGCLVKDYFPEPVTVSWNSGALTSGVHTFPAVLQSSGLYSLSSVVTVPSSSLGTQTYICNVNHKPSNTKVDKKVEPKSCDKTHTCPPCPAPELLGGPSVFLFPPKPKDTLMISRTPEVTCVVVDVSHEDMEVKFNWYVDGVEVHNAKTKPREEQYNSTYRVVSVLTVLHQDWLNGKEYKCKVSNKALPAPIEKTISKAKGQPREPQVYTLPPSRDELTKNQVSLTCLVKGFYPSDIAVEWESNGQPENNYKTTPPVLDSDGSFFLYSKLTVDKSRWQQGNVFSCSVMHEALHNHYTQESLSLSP
light: B1 light
notes: as for B4
B24: GpH7-B3 variant Q295_04F/GpL16-k0 (Ho Ab) (antibody, human IgG1, kappa)
heavy: not shown
light: B1 light
notes: as for B4
B25: GpH7-B3 variant E269_15Y/GpL16-k0 (Ho Ab) (antibody, human IgG1, kappa)
heavy: not shown
light: B1 light
notes: as for B4
B26: GpH7-B3 variant S298_08L/GpL16-k0 (Ho Ab) (antibody, human IgG1, kappa)
heavy: not shown
light: B1 light
notes: as for B4
B27: GpH7-B3 variant P271_11K/GpL16-k0 (Ho Ab) (antibody, human IgG1, kappa)
heavy: not shown
light: B1 light
notes: as for B4
B28: GpH7-B3 variant S324_03V/GpL16-k0 (Ho Ab) (antibody, human IgG1, kappa)
heavy: not shown
light: B1 light
notes: as for B4
B29: GpH7-B3 variant Q295_14T/GpL16-k0 (Ho Ab) (antibody, human IgG1, kappa)
heavy: not shown
light: B1 light
notes: as for B4
B30: GpH7-B3 variant K334_10E/GpL16-k0 (Ho Ab) (antibody, human IgG1, kappa)
heavy: not shown
light: B1 light
notes: as for B4
B31: GpH7-B3 variant S298_03V/GpL16-k0 (Ho Ab) (antibody, human IgG1, kappa)
heavy: not shown
light: B1 light
notes: as for B4
B32: GpH7-B3 variant I336_06M/GpL16-k0 (Ho Ab) (antibody, human IgG1, kappa)
heavy: not shown
light: B1 light
notes: as for B4
B33: GpH7-B3 variant K326_14T/GpL16-k0 (Ho Ab) (antibody, human IgG1, kappa)
heavy: not shown
light: B1 light
notes: as for B4
B34: GpH7-B3 variant S298_19Q/GpL16-k0 (Ho Ab) (antibody, human IgG1, kappa)
heavy: not shown
light: B1 light
notes: as for B4
B35: GpH7-B3 variant Q295_13S/GpL16-k0 (Ho Ab) (antibody, human IgG1, kappa)
heavy: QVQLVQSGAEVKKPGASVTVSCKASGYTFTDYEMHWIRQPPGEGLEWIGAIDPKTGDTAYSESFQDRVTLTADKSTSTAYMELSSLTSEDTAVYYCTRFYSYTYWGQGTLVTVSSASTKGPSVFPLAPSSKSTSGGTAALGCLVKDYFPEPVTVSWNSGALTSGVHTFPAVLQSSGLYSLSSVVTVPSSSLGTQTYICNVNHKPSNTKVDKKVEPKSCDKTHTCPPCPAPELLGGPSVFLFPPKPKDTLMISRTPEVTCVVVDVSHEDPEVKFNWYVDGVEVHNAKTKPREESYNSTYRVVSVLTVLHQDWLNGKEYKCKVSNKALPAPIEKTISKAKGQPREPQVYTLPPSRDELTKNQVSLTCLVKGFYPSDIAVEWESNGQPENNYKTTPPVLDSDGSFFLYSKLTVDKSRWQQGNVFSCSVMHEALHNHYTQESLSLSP
light: B1 light
notes: as for B4
B36: GpH7-B3 variant K326_16H/GpL16-k0 (Ho Ab) (antibody, human IgG1, kappa)
heavy: not shown
light: B1 light
notes: as for B4
B37: GpH7-B3 variant S337_03V/GpL16-k0 (Ho Ab) (antibody, human IgG1, kappa)
heavy: not shown
light: B1 light
notes: as for B4
B38: GpH7-B3 variant I336_18N/GpL16-k0 (Ho Ab) (antibody, human IgG1, kappa)
heavy: not shown
light: B1 light
notes: as for B4
B39: GpH7-B3 variant Q295_18N/GpL16-k0 (Ho Ab) (antibody, human IgG1, kappa)
heavy: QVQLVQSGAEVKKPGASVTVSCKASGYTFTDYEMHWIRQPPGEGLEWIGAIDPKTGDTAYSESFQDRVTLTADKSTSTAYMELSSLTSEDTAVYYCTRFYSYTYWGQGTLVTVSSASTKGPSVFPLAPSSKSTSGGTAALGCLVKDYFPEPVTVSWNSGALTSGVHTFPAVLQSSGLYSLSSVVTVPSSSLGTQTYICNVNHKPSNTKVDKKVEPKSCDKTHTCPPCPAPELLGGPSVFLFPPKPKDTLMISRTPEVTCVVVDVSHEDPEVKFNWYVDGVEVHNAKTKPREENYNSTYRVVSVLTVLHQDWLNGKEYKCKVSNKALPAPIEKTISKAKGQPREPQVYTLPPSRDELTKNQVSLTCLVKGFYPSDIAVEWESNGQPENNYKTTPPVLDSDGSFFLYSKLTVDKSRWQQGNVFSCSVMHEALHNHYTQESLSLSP
light: B1 light
notes: as for B4
B40: GpH7-B3 variant Q295_02A/GpL16-k0 (Ho Ab) (antibody, human IgG1, kappa)
heavy: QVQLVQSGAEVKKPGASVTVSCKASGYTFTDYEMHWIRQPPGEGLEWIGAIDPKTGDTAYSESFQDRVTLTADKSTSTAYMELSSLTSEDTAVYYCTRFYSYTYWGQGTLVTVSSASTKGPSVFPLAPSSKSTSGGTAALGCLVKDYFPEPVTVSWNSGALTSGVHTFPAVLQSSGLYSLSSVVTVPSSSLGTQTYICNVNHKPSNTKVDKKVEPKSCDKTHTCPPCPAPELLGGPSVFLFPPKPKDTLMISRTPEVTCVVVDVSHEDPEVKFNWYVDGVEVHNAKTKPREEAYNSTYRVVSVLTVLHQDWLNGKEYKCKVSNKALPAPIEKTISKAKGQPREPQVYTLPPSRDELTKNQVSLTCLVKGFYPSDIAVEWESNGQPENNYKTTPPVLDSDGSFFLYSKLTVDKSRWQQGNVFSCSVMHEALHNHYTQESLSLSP
light: B1 light
notes: as for B4
B41: GpH7-B3 variant S298_10E/GpL16-k0 (Ho Ab) (antibody, human IgG1, kappa)
heavy: not shown
light: B1 light
notes: as for B4
B42: GpH7-B3 variant I336_03V/GpL16-k0 (Ho Ab) (antibody, human IgG1, kappa)
heavy: not shown
light: B1 light
notes: as for B4
B43: GpH7-B3 variant S324_19Q/GpL16-k0 (Ho Ab) (antibody, human IgG1, kappa)
heavy: not shown
light: B1 light
notes: as for B4
B44: GpH7-B3 variant S324_02A/GpL16-k0 (Ho Ab) (antibody, human IgG1, kappa)
heavy: not shown
light: B1 light
notes: as for B4
B45: GpH7-B3 variant S239_09D/GpL16-k0 (Ho Ab) (antibody, human IgG1, kappa)
heavy: not shown
light: B1 light
notes: Ho Ab: alteration in both H chains; also called GpH7-B3-06-09D/GpL16-k0
B46: GpH7-B3 variant E333_13S/GpL16-k0 (Ho Ab) (antibody, human IgG1, kappa)
heavy: not shown
light: B1 light
notes: as for B4
B47: GpH7-B3 variant S267_02A/GpL16-k0 (Ho Ab) (antibody, human IgG1, kappa)
heavy: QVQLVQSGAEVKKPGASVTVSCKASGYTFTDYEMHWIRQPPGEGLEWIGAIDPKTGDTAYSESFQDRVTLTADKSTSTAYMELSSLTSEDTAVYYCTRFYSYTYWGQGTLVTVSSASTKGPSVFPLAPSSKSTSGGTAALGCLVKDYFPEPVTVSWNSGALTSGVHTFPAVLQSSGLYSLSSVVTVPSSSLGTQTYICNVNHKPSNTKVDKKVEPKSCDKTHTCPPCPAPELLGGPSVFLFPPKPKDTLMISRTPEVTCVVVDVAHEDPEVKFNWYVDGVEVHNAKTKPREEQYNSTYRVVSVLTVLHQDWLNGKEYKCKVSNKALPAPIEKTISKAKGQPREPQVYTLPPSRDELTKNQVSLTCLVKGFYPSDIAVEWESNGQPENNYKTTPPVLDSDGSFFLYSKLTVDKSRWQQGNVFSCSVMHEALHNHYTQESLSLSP
light: B1 light
notes: as for B4
B48: GpH7-B3 variant S324_14T/GpL16-k0 (Ho Ab) (antibody, human IgG1, kappa)
heavy: not shown
light: B1 light
notes: as for B4
B49: GpH7-B3 variant S298_14T/GpL16-k0 (Ho Ab) (antibody, human IgG1, kappa)
heavy: not shown
light: B1 light
notes: as for B4
B50: GpH7-B3 variant G236_20W/GpL16-k0 (Ho Ab) (antibody, human IgG1, kappa)
heavy: not shown
light: B1 light
notes: as for B4
B51: GpH7-B3 variant P271_13S/GpL16-k0 (Ho Ab) (antibody, human IgG1, kappa)
heavy: not shown
light: B1 light
notes: as for B4
B52: GpH7-B3 variant S298_18N/GpL16-k0 (Ho Ab) (antibody, human IgG1, kappa)
heavy: not shown
light: B1 light
notes: as for B4
B53: GpH7-B3 variant P271_04F/GpL16-k0 (Ho Ab) (antibody, human IgG1, kappa)
heavy: not shown
light: B1 light
notes: as for B4
B54: GpH7-B3 variant S267_09D/GpL16-k0 (Ho Ab) (antibody, human IgG1, kappa)
heavy: not shown
light: B1 light
notes: as for B4
B55: GpH7-B3 variant S298_15Y/GpL16-k0 (Ho Ab) (antibody, human IgG1, kappa)
heavy: not shown
light: B1 light
notes: as for B4
B56: GpH7-B3 variant S239_01G/GpL16-k0 (Ho Ab) (antibody, human IgG1, kappa)
heavy: not shown
light: B1 light
notes: as for B4
B57: GpH7-B3 variant S324_08L/GpL16-k0 (Ho Ab) (antibody, human IgG1, kappa)
heavy: not shown
light: B1 light
notes: as for B4
B58: GpH7-B3 variant I336_04F/GpL16-k0 (Ho Ab) (antibody, human IgG1, kappa)
heavy: not shown
light: B1 light
notes: as for B4
B59: GpH7-B3 variant I336_02A/GpL16-k0 (Ho Ab) (antibody, human IgG1, kappa)
heavy: not shown
light: B1 light
notes: as for B4

The binders below were run against T1, FcγRIa extracellular domain with C-terminal His tag (human, UniProt P12314 16-292) (assay: SPR Biacore, antibody captured, FcγRIa analyte; vs GpH7-A5/GpH7-B3/GpL16-k0 = 100).
T1 construct: extracellular domain; Expressed in FreeStyle293 cells; analyte in Biacore; also called FcgRI; FcgRIa
T1 sequence (P12314 16-292): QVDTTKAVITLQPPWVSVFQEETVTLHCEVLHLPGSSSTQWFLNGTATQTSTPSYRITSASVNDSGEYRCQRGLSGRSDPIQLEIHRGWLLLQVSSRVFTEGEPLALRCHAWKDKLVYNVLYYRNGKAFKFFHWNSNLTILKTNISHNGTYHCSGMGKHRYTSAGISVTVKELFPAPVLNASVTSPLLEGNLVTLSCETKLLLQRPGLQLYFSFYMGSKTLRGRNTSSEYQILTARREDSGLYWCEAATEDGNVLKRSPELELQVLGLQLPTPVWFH

Binder | He/Con_1a
B1 | 104 relative (control = 100)
B2 | 107 relative (control = 100)
B3 | 103 relative (control = 100)

The binders below were run against T1, FcγRIa extracellular domain with … (assay: SPR Biacore, antibody captured, FcγRIa analyte; vs GpH7-B3/GpL16-k0 = 100).

Binder | Ho/Con_1a
B4 | 101 relative (control = 100)
B5 | 102 relative (control = 100)
B6 | 102 relative (control = 100)
B7 | 102 relative (control = 100)
B8 | 107 relative (control = 100)
B9 | 101 relative (control = 100)
B10 | 100 relative (control = 100)
B11 | 102 relative (control = 100)
B12 | 102 relative (control = 100)
B13 | 102 relative (control = 100)
B14 | 103 relative (control = 100)
B15 | 112 relative (control = 100)
B16 | 101 relative (control = 100)
B17 | 101 relative (control = 100)
B18 | 103 relative (control = 100)
B19 | 101 relative (control = 100)
B20 | 107 relative (control = 100)
B21 | 104 relative (control = 100)
B22 | 102 relative (control = 100)

Binder | Ho/Con_1a
B23 | 102 relative (control = 100)
B24 | 100 relative (control = 100)
B25 | 100 relative (control = 100)
B26 | 104 relative (control = 100)
B27 | 101 relative (control = 100)
B28 | 103 relative (control = 100)
B29 | 102 relative (control = 100)
B30 | 107 relative (control = 100)
B31 | 106 relative (control = 100)
B32 | 104 relative (control = 100)
B33 | 103 relative (control = 100)
B34 | 105 relative (control = 100)
B35 | 101 relative (control = 100)
B36 | 101 relative (control = 100)
B37 | 105 relative (control = 100)
B38 | 104 relative (control = 100)
B39 | 101 relative (control = 100)
B40 | 104 relative (control = 100)
B41 | 106 relative (control = 100)

Binder | Ho/Con_1a
B42 | 105 relative (control = 100)
B43 | 111 relative (control = 100)
B44 | 103 relative (control = 100)
B45 | 101 relative (control = 100)
B46 | 101 relative (control = 100)
B47 | 108 relative (control = 100)
B48 | 112 relative (control = 100)
B49 | 106 relative (control = 100)
B50 | 104 relative (control = 100)
B51 | 101 relative (control = 100)
B52 | 104 relative (control = 100)
B53 | 100 relative (control = 100)
B54 | 106 relative (control = 100)
B55 | 103 relative (control = 100)
B56 | 101 relative (control = 100)
B57 | 103 relative (control = 100)
B58 | 104 relative (control = 100)
B59 | 103 relative (control = 100)
